Test results published in PMC4926069.

Molecular target: Angiotensin I-converting enzyme (ACE, EC 3.4.15.1, from rabbit lung) (rabbit) (UniProt P12822)
Chain of UniProt P12822 (P12822 34-1310): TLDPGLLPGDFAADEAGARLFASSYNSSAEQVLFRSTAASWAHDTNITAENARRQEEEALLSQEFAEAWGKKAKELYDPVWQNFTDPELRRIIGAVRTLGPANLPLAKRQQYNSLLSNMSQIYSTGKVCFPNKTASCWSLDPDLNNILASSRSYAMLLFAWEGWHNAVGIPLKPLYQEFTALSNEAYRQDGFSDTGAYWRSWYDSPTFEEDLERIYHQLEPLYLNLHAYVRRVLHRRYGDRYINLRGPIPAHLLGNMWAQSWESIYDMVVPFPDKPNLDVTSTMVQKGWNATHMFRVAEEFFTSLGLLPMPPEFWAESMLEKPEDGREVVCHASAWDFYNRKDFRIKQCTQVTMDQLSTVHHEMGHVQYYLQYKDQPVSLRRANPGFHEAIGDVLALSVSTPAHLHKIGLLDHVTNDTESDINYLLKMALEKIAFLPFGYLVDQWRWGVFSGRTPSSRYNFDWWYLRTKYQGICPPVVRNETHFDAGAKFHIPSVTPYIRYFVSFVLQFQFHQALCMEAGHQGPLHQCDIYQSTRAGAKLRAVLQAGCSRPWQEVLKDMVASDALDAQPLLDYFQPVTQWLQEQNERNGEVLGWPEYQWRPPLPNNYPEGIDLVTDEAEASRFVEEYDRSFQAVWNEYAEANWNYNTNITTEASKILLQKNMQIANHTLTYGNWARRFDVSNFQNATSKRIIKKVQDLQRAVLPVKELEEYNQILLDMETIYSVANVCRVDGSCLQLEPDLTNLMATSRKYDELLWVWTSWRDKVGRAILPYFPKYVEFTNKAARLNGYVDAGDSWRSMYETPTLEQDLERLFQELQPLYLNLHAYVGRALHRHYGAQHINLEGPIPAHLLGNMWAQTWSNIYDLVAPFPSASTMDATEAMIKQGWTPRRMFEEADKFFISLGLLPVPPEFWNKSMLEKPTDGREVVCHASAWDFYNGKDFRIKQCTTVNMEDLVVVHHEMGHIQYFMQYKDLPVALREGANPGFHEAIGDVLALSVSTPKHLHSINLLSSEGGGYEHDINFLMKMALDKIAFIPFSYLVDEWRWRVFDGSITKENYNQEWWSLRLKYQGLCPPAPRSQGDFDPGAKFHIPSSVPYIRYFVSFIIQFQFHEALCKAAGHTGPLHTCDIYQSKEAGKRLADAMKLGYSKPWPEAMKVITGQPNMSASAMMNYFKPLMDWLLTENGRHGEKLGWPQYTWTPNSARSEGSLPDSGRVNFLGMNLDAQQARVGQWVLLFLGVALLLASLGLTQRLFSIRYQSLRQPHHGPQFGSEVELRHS

Val-Gln-Tyr (VQY) (peptide)
IC50 of inhibition of ACE activity (HHL as substrate, hippuric acid measured by RP-HPLC; 0.25–100 μM peptide, four-parameter logistic fit): 9.8 μM
